Test results taken from paper PMC9601230 (mBio, 2022).

How the values were obtained:
[1] = target: the molecule itself; assay: SEC; analytical Superdex 75 10/300GL, 0.3 mL/min, 20 mM Tris pH 8.0, 200 mM NaCl, 0.5 mM TCEP; 100 uL of protein at 2 mg/mL loaded; calibrated with protein standards
DrRuvC [2] = target: T1, DrRuvC (Deinococcus radiodurans, UniProt Q9RX75 1-179); assay: EMSA; EMSA: 100 nM 6-FAM substrate, 50 mM Tris-HCl pH 8.0, 125 mM NaCl, 10 ug/mL BSA, 1 mM TCEP, 5% glycerol, 30 C 10 min; 5% native PAGE in 0.5x Tris-borate; details: protein: recombinant, tags: N-terminal His-MBP-TEV, removed by TEV, chain copies: 2, label: 5'-6-FAM on J31-1
T1 sequence: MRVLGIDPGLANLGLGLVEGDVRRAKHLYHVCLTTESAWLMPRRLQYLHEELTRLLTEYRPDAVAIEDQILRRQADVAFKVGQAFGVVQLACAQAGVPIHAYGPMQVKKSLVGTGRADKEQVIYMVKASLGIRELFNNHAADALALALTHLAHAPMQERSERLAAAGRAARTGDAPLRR

DrRuvC [3] = target: T1, DrRuvC; assay: EMSA; no obvious specific complex band; EMSA: 100 nM 6-FAM substrate, 50 mM Tris-HCl pH 8.0, 125 mM NaCl, 10 ug/mL BSA, 1 mM TCEP, 5% glycerol, 30 C 10 min; 5% native PAGE in 0.5x Tris-borate; details: protein: recombinant; tags: N-terminal His-MBP-TEV, removed by TEV; chain copies: 2; label: 5'-6-FAM on J31-1; blunt, nick between J31-5 and J31-7

B1: RuvC from Deinococcus radiodurans (enzyme, UniProt Q9RX75 1-179, looked up)
chain: MRVLGIDPGLANLGLGLVEGDVRRAKHLYHVCLTTESAWLMPRRLQYLHEELTRLLTEYRPDAVAIEDQILRRQADVAFKVGQAFGVVQLACAQAGVPIHAYGPMQVKKSLVGTGRADKEQVIYMVKASLGIRELFNNHAADALALALTHLAHAPMQERSERLAAAGRAARTGDAPLRR
notes: Holliday junction resolvase RuvC, Deinococcus radiodurans, full-length gene, residues 1 to 179, amplified from genomic DNA; Expressed from pET28-HMT (His-MBP-TEV); tag removed with TEV protease, so residues of the TEV site may be left at the N-terminus; also called DrRuvC; dr0440; source: E. coli Rossetta (DE3), purified (HisTrap, TEV cleavage, HisTrap, Heparin, Superdex 75); not shown: His6, …
stoichiometry N [1]: 2

B2: mobile HJ (HJ31) (structured_DNA)
DNA 1: GCTAGCCACAGCCATTCGTACGATTGCGGGA
DNA 2: TCCCGCAATCGTACGAAACCGAGCACGATCT
DNA 3: AGATCGTGCTCGGTTTCGTACCAGATGCCAT
DNA 4: ATGGCATCTGGTACGAATGGCTGTGGCTAGC
Kd (DrRuvC [2]; four-way junction with mobile homologous core, 4 strands): ~150 nM

B3: nicked HJ (structured_DNA)
DNA 1: GCTAGCCACAGCCATTCGTACGATTGCGGGA
DNA 2: TCCCGCAATCGTCCGTTTCCGAGCACGATCT
DNA 3: AGATCGTGCTCGGAAA
DNA 4: GCCTGCAGATGCCAT
DNA 5: ATGGCATCTGCAGGCAATGGCTGTGGCTAGC
Kd (DrRuvC [2]; 3'-OH and 5'-OH at nick, four-way junction, nick in strand opposite J31-1, 5 strands): ~150 nM

B4: replication fork (structured_DNA)
DNA 1: GCTAGCCACAGCCATTCGTACGATTGCGGGA
DNA 2: TCCCGCAATCGTCCGTTTCCGAGCACGATCT
DNA 3: AGATCGTGCTCGGAAA
DNA 4: AATGGCTGTGGCTAGC
Kd (DrRuvC [2]; three-way junction with nick at junction, 4 strands): ~410 nM

B5: immobile HJ (structured_DNA)
DNA 1: GCTAGCCACAGCCATTCGTACGATTGCGGGA
DNA 2: TCCCGCAATCGTCCGTTTCCGAGCACGATCT
DNA 3: AGATCGTGCTCGGAAAGCCTGCAGATGCCAT
DNA 4: ATGGCATCTGCAGGCAATGGCTGTGGCTAGC
Kd (DrRuvC [2]; four-way junction, 4 strands): ~150 nM

B6: Y-junction (structured_DNA)
DNA 1: GCTAGCCACAGCCATTCGTACGATTGCGGGA
DNA 2: TCCCGCAATCGTCCGTTTCCGAGCACGATCT
DNA 3: AGATCGTGCTCGGAAAAATGGCTGTGGCTAGC
Kd (DrRuvC [2]; three-way junction, 3 strands): ~425 nM

B7: nicked duplex (dsDNA)
DNA 1: GCTAGCCACAGCCATTCGTACGATTGCGGGA
DNA 2: TCCCGCAATCGTACG
DNA 3: AATGGCTGTGGCTAGC
Kd (DrRuvC [3]): ~408 nM
